According to patent US9951373B2, “Oplophorus-derived luciferases, novel coelenterazine substrates, and methods of use” (Promega Corporation, priority 2010, dated 2018):

Tests used:
HEK293 cells [1] = assay: Luminescence in sandwich background, HEK293 cells; format: cell-based, human
Method: (§1) The PCR library in the Id-OgLuc-HT7 sandwich background was screened for additional variants with increased luminescence compared to 9B8 opt+K33N in sandwich background. Selected variants were then assayed in HEK293 and NIH3T3 cells. […] 1F7 (F) (SEQ ID NOs: 84 and 85) and 15H1 (F) (SEQ ID NOs: 86 and 87) had at least 1.3 fold-increase in luminescence in E. coli. 1F7 (F) was brighter than 9B8 opt+K33N in the sandwich background in HEK293 and NIH3T3 cells.
(§2) The variants 9B8 opt+K33N+T39T+K43R+Y68D (“V2”; SEQ ID NOs: 92 and 93), 9B8 opt+K33N+L27V+K43R+Y68D (SEQ ID NOs: 339 and 340), 9B8 opt+K33N+L27V+T39T+K43R+S66N (SEQ ID NOs: 341 and 342), and 9B8 opt+K33N+L27V+T39T+K43R+Y68D (“L27V”; SEQ ID NOs: 88 and 89) were subcloned into the Id-OgLuc-HT7 sandwich background as described above and assayed in HEK293 and NIH3T3 cells as described above. The luminescence generated by the sandwiched variants were compared to the luminescence generated by the […] sandwich (SEQ ID NOs: 59 and 60) (Table 38). The L27V sandwich (SEQ ID NOs: 90 and 91) and V2 sandwich (SEQ ID NOs: 94 and 95) had at least 1.3× fold-increase in luminescence in HEK293 and NIH3T3 cells.
(§3) The sandwich and non-sandwich versions of the variants V2, 9B8 opt+K33N+L27V+K43R+Y68D, 9B8 opt+K33N+L27V+T39T+K43R+S66N, and L27V were assayed in HEK293 and NIH3T3 cells as described in Example 37. The luminescence generated by the non-sandwiched variants was compared to the luminescence generated by the sandwiched variants (Table 39).

NIH3T3 cells [2] = assay: Luminescence in sandwich background, NIH3T3 cells; format: cell-based
Method: as §1, §2, §3

[3] = Luminescence of 9B8 opt+K33N derived variants in E. coli; format: biochemical
Method: Luminescence generated from the lysates was measured using the novel PBI-3939 and native coelenterazine as substrates. The relative specificity of the variants for PBI-3939 and native coelenterazine was calculated as described previously.
A new OgLuc library was created using 9B8opt+K33N as a starting template. The random library was created using DIVERSIFY® PCR Random Mutagenesis Kit (ClonTech; Catalog #630703). Condition 5 (as listed in the user manual) was used to generate additional variants, and the average mutation rate was calculated to be 2.6 mutations per gene by compiling sequence data from 83 randomly selected clones. This PCR library was cloned into the pF4Ag-based, non-fusion vector background described previously and the sandwich background, i.e., Id-OgLuc-HT7 (described in Example 45). Variants in the pF4Ag-base non-fusion vector background are designated with (NF). Variants in the sandwich vector background are designated with (F). In order to clone the PCR product into both vectors, an amino acid, i.e., a glycine, was appended to the variant sequence in pF4Ag, generating a new position 170 in the OgLuc variant (“170G”). The 170G is present in the sandwich construct, but in this case is considered part of the linker between OgLuc and HT7. For each library, 4,400 E. coli clones were assayed as described previously with the following exceptions. […] The assay buffer contained 100 mM MES pH 6.0 instead of HEPES, and 35 mM thiourea. The assay volumes were as follows: 10 μL cells, 40 μL, lysis buffer, and 50 μL, assay buffer.
E. coli lysates containing the variants were prepared and analyzed as described previously. Luminescence generated from the lysates was measured using the novel PBI-3939 and native coelenterazine as substrates. The luminescence of the variants was normalized to the luminescence generated by 9B8 opt (Table 12). The relative specificity of the variants for PBI-3939 and native coelenterazine was calculated by dividing the luminescence of the variants using PBI-3939 as a substrate with the luminescence of the variants using native coelenterazine as a substrate (Table 12).

HEK293 cells [4] = assay: Luminescence of OgLuc variants expressed in HEK293 cells; format: cell-based, human
Method: (§4) The PCR library in the pF4Ag-based non-fusion background was screened for additional variants with increased luminescence compared to 9B8 opt+K33N+170G (SEQ ID NOs: 68 and 69). Selected variants were then assayed in HEK293 and NIH3T3 cells. For each cell type, 15,000 cells were plated and grown overnight at 37° C. The next day, the cells were transfected as described in Example 25 with 10 ng pGL4.13 (Promega Corp.) as a transfection control and 100 ng of the OgLuc test DNA. The media was removed, and the cells were lysed with 100 μL of lysis buffer as described in Example 25 except the lysis buffer contained 100 mM MES pH 6.0 instead of HEPES, and luminescence measured using a GLOMAX® Luminometer.
(§5) Based on the above data, further combination variants were designed and generated (see Table 10) in the context of the pF4Ag-based non-fusion vector background without the 170G. The variants were analyzed in E. coli, HEK293 and NIH3T3 cells as described above and compared to 9B8 opt+K33N. The variants were also examined for luminescence with native coelenterazine.
(§6) The brightness of the variants expressed in HEK293 and NIH3T3 cells was measured as described previously. The luminescence of the variants was normalized to the luminescence generated by 9B8 opt (Table 27).

NIH3T3 cells [5] = assay: Luminescence of OgLuc variants expressed in NIH3T3 cells; format: cell-based
Method: as §4, §5, §6

[6] = Enzyme kinetics of OgLuc variants in E. coli lysates; format: biochemical; settings: PBI-3939, E. coli lysates
Method: Using methods known in the art, enzyme kinetic assays measuring luminescence were performed with the lysates of E. coli containing IV and the IV variants 15C1, 9B8, 9F6, and 9A3. […] Two fold serial dilutions of PBI-3939 in the assay buffer described previously in Example 26 were assayed with the diluted lysates. […] Variants 9B8 and 9F6 had higher Km values compared to IV while Km values for the other variants were unchanged.
Luminescence was measured on a TECAN® INFINITE® F500 luminometer.
The enzyme kinetics values were determined for the OgLuc variants as described previously, except luminescence was measured using a GLOMAX® luminometer. Three replicates were used for each variant.

[7] = Thermal stability of OgLuc variants at 60° C.; format: physicochemical; settings: 60° C., assay buffer MES pH 6.0
Method: Aliquots were removed at different time-points and placed on dry ice to freeze the samples. […] Luminescence was measured on a GLOMAX® luminometer (Promega Corp.).
The thermal stability of the variants at 60° C. was examined as described above, except the assay buffer contained 100 mM MES pH 6.0 instead of HEPES.

[8] = relative specificity for PBI-3939 compared to native coelenterazine

B1: L27V, T39T, K43R, Y68D Sand: L27V in Id-OgLuc-HT7 sandwich (SEQ ID NO: 91) (protein)
chain: MLGLSEQSVSISRCAGTRLPALLDEQQVNVLLYDMNGCYSRLKELVPTLPQNRKVSKVEILQHVIDYIRDLQLELNSESEVGTTGGRGLPVRAPLSTLNGEISALAAEAACVPADDRILCRVSLENLYFQASGGGGGAIAMVFTLEDFVGDWRQTAGYNLDQVLEQGGVSSLFQNLGVSVTPIQRIVLSGENGLKIDIHVIIPYEGLSGDQMGQIEKIFKVVYPVDDHHFKVILHYGTLVIDGVTPNMIDYFGRPYEGIAVFDGKKITVTGTLWNGNKIIDERLINPDGSLLFRVTINGVTGWRLCERILAGYLEPTTEDLYFQSDNDGSEIGTGFPFDPHYVEVLGERMHYVDVGPRDGTPVLFLHGNPTSSYVWRNIIPHVAPTHRCIAPDLIGMGKSDKPDLGYFFDDHVRFMDAFIEALGLEEVVLVIHDWGSALGFHWAKRNPERVKGIAFMEFIRPIPTWDEWPEFARETFQAFRTTDVGRKLIIDQNVFIEGTLPMGVVRPLTEVEMDHYREPFLNPVDREPLWRFPNELPIAGEPANIVALVEEYMDWLHQSPVPKLLFWGTPGVLIPPAEAARLAKSLPNCKAVDIGPGLNLLQEDNPDLIGSEIARWLSTLEISG
- Fold over 9B8 opt + K33N sandwich, HEK293 (HEK293 cells [1]; sandwich background): 1.7
- Fold over 9B8 opt + K33N sandwich, NIH3T3 (NIH3T3 cells [2]; sandwich background): 1.4

B2: L27V, K43R, Y68D: 9B8 opt+K33N with L27V, K43R, Y68D (SEQ ID NO: 340) (protein)
chain: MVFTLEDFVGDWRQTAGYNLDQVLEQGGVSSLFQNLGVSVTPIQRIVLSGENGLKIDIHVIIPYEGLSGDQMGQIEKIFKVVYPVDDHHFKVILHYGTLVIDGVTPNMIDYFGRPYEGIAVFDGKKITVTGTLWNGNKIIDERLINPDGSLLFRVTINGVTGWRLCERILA
- fold-increase in relative specificity over 9B8 opt+K33N ([3]; in the three cell types examined): 5 × fold
- Fold over coelenterazine ([3]; luminescence with PBI-3939 divided by luminescence with native coelenterazine, bacterial lysates): 110
- Fold over 9B8 ([3]; luminescence with PBI-3939 normalized to 9B8 opt, bacterial lysates): 1.3
- Fold over Native Coelenterazine, E. coli [3, 8]: 98.3
- luminescence normalized to 9B8 opt, HEK293 (HEK293 cells [4]; PBI-3939): 1.6
- Fold over 9B8 opt + K33N, HEK293 (HEK293 cells [4]; luminescence, PBI-3939): 0.9
- Fold over Native Coelenterazine, HEK293 (HEK293 cells [4]; [8]): 101
- luminescence normalized to 9B8 opt, NIH3T3 (NIH3T3 cells [5]; PBI-3939): 1.5
- Fold over 9B8 opt + K33N, NIH3T3 (NIH3T3 cells [5]; luminescence, PBI-3939): 0.8
- Fold over Native Coelenterazine, NIH3T3 (NIH3T3 cells [5]; [8]): 98
- Km [6]: 13.7 µM
- Vmax [6]: 130,000,000 RLU/0.5 sec
- 1/2 life hours [7]: 23.2 h
- Fold-decrease in luminescence in the presence of sandwich background, HEK 293 (HEK293 cells [1]; non-sandwich versus sandwich): 8
- Fold-decrease in luminescence in the presence of sandwich background, NIH 3T3 cells (NIH3T3 cells [2]; non-sandwich versus sandwich): 22
